Data published in article PMC9898740, “Spatial control of self-organizing vascular networks with programmable aptamer-tethered growth factor photopatterning”.

Target: VEGF165 (UniProt P15692-4 27-191)
Assay: hydrogel sequestration, anti-VEGFA immunofluorescence (confocal); aptamer tethered in GelMA hydrogel, 10 ng VEGF 1 h; GelMA region without aptamer about 16% of the aptamer-region signal; 0.1% BSA in DPBS, 37 °C, 10 ng VEGF in 1 ml for 1 h, wash, 24 h at 37 °C; 25 µM aptamer in 5% GelMA
Conditions: protein: commercial; chain copies: 2; single strand, covalently tethered in GelMA hydrogel

Chain of VEGF165 (P15692 other isoform, or with tags, fused parts or gaps): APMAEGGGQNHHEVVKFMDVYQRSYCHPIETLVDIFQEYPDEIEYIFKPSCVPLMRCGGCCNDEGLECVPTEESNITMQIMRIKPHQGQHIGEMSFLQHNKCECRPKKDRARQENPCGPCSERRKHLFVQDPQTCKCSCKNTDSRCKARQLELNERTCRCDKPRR

CGATCGTATCAGTCCACAAGCCCGTCTTCCAGACAAGAGTGCAGGGC (ssDNA, 5'-acrydite) [VEGF165-specific 5'-acrydite aptamer]: binds.
